According to patent US20240409662A1, “ANTIBODY MASKS AND USES THEREOF” (Vibrant Pharma Limited, priority 2021, published 2024):
“Also recorded” adds a separate entry of the source. No end group written: not given here.

Columns and labels:
SP34 [1] = experiment: ELISA of SP34 binding to coated CD3ε1-27-Fc fusion proteins; conditions: FIG. 2A
Method: Examination of binding of SP34 to CD3ε1-27-Fc fusion proteins was conducted by ELISA. 100 μL of 2 μg/mL fusion protein was coated on 96 well microtiter plate (Nunc) at room temperature (RT) overnight. After blocking the wells with 3% milk-PBS (3% non-fat milk in 137 mM NaCl, 2.7 mM KCl, 10 mM Na2HPO4 1.8 mM KH2PO4) at RT for 1 hr and 6 washes with 0.05% PBST (0.05% Tween-20 in PBS), SP34 (5 μg/mL, 50 μL/well) was added to the wells as the first antibody and allowed for incubation at 37° C. for 1 hr. The wells were washed for 6 times with PBST after the incubation, and the second antibody horseradish peroxidase (HRP) labeled anti-Kappa light chain (Sigma, 1:6,000 dilution, 50 μL/well) was added and allowed for incubation at RT for 50 min. After 6 washes with PBST, 3,3′, 5,5′-Tetramethylbenzidine (TMB) was added to develop color, and 1M HCl was then added to stop the reaction. ELISA titer was read with a microtiter plate reader (Thermo Fisher) at 450 nm wavelength.

SP34 [2] = experiment: BLI affinity of biotinylated N-terminal CD3ε peptides (on SA biosensor) to SP34 as analyte; type: binding; conditions: peptide immobilized
Source text: (§1) Bio-Layer Interferometry (BLI) technique was employed for the measurement of protein-protein interactions in this study. A Octet Red96 system and Streptavidin (SA) or AHC biosensors (ForteBio, Fremont) were utilized.
(§2) To measure the binding of SP34 to CD3ε peptides, the peptides were immobilized on the SA biosensor through SA-biotin interaction according the manufacturer's instruction. After running PBS with 0.01% Tween-20 buffer to stabilize baselines, the biosensors were dipped into solid black 96-well plates (Greiner Bio-One, Cat. #65520, Monroe, North Carolina, USA) containing SP34 in indicated concentrations. Association and dissociation were measured accordingly, and binding kinetics were calculated using ForteBio's Data Analysis 12.0 software.
(§3) BLI technology was employed to measure the affinity of the six peptides to SP34 with a ForteBio Red96. These peptides were immobilized on the SA Biosensor and their affinities were measured using SP34 as the analyte. The binding sensorgrams indicate that SP34 binds to all six peptides with very similar profiles (FIG. 1C). The affinities of the bindings were determined as between 1-4 nM (Table 1), very similar to that of CD3δε/SP34 binding. […] It is further hypothesized that a N-terminal CD3ε peptide […] can bind to SP34 as well.

CD3δε [3] = target: T1, CD3δε (Homo sapiens, UniProt P07766); experiment: BLI (Octet Red96), SP34 on AHC biosensor, CD3δε as analyte
CD3ε-p1 = target: T2, CD3ε-p1 (human); experiment: BLI, biotinylated peptide on SA biosensor, SP34 as analyte
T2 construct: also called 5 AA N-terminal CD3ε peptide
T2 peptide: QDGNEGGGGS-biotin
Method: as §2
as §3, with “1C).” for “1C). The affinities of the bindings were determined as between 1-4 nM (Table 1), very similar to that of CD3δε/SP34 binding.”

CD3ε-p6 = target: T3, CD3ε-p6 (human, biotinylation at the C-terminus); experiment: as above
T3 construct: also called 20 AA N-terminal CD3ε peptide
T3 peptide: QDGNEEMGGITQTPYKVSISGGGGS
Method: as §2
as §3, with “1C).” for “1C). The affinities of the bindings were determined as between 1-4 nM (Table 1), very similar to that of CD3δε/SP34 binding.”

CD3ε-p2 = target: T4, CD3ε-p2 (human); experiment: as above
T4 construct: also called 8 AA N-terminal CD3ε peptide
T4 peptide: QDGNEEMGGGGGS-biotin
Method: as §2
as §3, with “1C).” for “1C). The affinities of the bindings were determined as between 1-4 nM (Table 1), very similar to that of CD3δε/SP34 binding.”

CD3ε-p3 = target: T5, CD3ε-p3 (human); experiment: as above
T5 construct: also called 11 AA N-terminal CD3ε peptide
T5 peptide: QDGNEEMGGITGGGGS-biotin
Method: as §2
as §3, with “1C).” for “1C). The affinities of the bindings were determined as between 1-4 nM (Table 1), very similar to that of CD3δε/SP34 binding.”

CD3ε-p7 = target: T6, CD3ε-p7 (human, biotinylation at the C-terminus); experiment: as above
T6 construct: also called 23 AA N-terminal CD3ε peptide
T6 peptide: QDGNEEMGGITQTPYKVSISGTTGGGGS
Method: as §2
as §3, with “1C).” for “1C). The affinities of the bindings were determined as between 1-4 nM (Table 1), very similar to that of CD3δε/SP34 binding.”

CD3ε-p5 = target: T7, CD3ε-p5 (human, biotinylation at the C-terminus); experiment: as above
T7 construct: also called 17 AA N-terminal CD3ε peptide
T7 peptide: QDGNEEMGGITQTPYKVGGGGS
Method: as §2
as §3, with “1C).” for “1C). The affinities of the bindings were determined as between 1-4 nM (Table 1), very similar to that of CD3δε/SP34 binding.”

CD3 on human PBMC = CD3 on human PBMC (human, UniProt P07766 23-207); experiment: cell-based or functional assay
Sequence of CD3 on human PBMC (P07766 23-207): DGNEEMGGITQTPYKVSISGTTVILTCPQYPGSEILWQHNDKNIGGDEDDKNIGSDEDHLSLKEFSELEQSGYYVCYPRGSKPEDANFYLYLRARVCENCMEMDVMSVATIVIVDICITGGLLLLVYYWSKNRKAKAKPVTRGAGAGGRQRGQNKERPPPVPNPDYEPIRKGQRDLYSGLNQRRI

CD3δε [4] = target: T1, CD3δε; experiment: BLI affinity of SP34 (immobilized on AHC biosensor) to CD3δε as analyte; type: binding; parameters: purchased ACRO (Beijing, China)
Method: as §1
Target sequence in this assay (P07766 22-126 limits assumed): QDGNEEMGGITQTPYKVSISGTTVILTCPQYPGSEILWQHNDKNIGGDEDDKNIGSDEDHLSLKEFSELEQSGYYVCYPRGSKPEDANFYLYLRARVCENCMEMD
Target sequence in this assay (P04234 22-105 partner limits assumed): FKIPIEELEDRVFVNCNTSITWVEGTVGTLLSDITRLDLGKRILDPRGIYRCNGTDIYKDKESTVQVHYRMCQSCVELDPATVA
CD3δε was purchased from ACRO (Beijing, China) and used as the antigen for SP34 affinity measurement.
SP34 was immobilized on the AHC biosensor and its affinity to CD3δε was measured using the latter as the analyte. This approach was selected as it can avoid potential multivalent binding and give accurate affinity between SP34 and CD3δε.

## D2N: D2N mutant of the CD3ε1-27-Fc fusion protein
SP34 [1]
  binding of SP34 to fusion protein: significant binding; also recorded: maintained binding

## D2G: D2G mutant of the CD3ε1-27-Fc fusion protein
SP34 [1]
  binding of SP34 to fusion protein: significant binding; also recorded: maintained binding

## CD3ε-p3: N-terminal human CD3ε peptide with C-terminal GGGGS linker, biotinylated (QDGNEEMGGITGGGGS; not fully specified (C-terminus); also: biotinylated)
SP34 [2]
  Kd: 2 nM
  ka: 56000 M⁻¹ s⁻¹
  kd: 0.00011 s⁻¹

## D2E: D2E mutant of the CD3ε1-27-Fc fusion protein
SP34 [1]
  binding of SP34 to fusion protein: significant binding; also recorded: maintained binding

## CD3ε-p2: N-terminal human CD3ε peptide with C-terminal GGGGS linker, biotinylated (QDGNEEMGGGGGS; not fully specified (C-terminus); also: biotinylated)
SP34 [2]
  Kd: 3.6 nM
  ka: 65000 M⁻¹ s⁻¹
  kd: 0.00024 s⁻¹

## G3A: G3A mutant of the CD3ε1-27-Fc fusion protein
SP34 [1]
  binding of SP34 to fusion protein: significant binding; also recorded: maintained binding

## CD3ε-p5: N-terminal human CD3ε peptide with C-terminal GGGGS linker, biotinylated (QDGNEEMGGITQTPYKVGGGGS; not fully specified (C-terminus); also: biotinylated)
SP34 [2]
  Kd: 1.8 nM
  ka: 54000 M⁻¹ s⁻¹
  kd: 9.8e-05 s⁻¹

## D2C: D2C mutant of the CD3ε1-27-Fc fusion protein
SP34 [1]
  binding of SP34 to fusion protein: significant binding; also recorded: maintained binding

## CD3ε-p7: N-terminal human CD3ε peptide with C-terminal GGGGS linker, biotinylated (QDGNEEMGGITQTPYKVSISGTTGGGGS; not fully specified (C-terminus); also: biotinylated, site not given here)
SP34 [2]
  Kd: 1.3 nM
  ka: 100000 M⁻¹ s⁻¹
  kd: 0.00013 s⁻¹

## CD3ε-p6: N-terminal human CD3ε peptide with C-terminal GGGGS linker, biotinylated (QDGNEEMGGITQTPYKVSISGGGGS; not fully specified (C-terminus); also: biotinylated)
SP34 [2]
  Kd: 3.5 nM
  ka: 46000 M⁻¹ s⁻¹
  kd: 0.00016 s⁻¹

B1: SP34 chimeric antibody (antibody, V domains shown)
VH: EVKLLESGGGLVQPKGSLKLSCAASGFTFNTYAMNWVRQAPGKGLEWVARIRSKYNNYATYYADSVKDRFTISRDDSQSILYLQMNNLKTEDTAMYYCVRHGNFGNSYVSWFAYWGQGTLVTVSS
VL: QAVVTQESALTTSPGETVTLTCRSSTGAVTTSNYANWVQEKPDHLFTGLIGGTNKRAPGVPARFSGSLIGDKAALTITGAQTEDEAIYFCALWYSNLWVFGGGTKVEIK
notes: VH and VL fused to the constant regions of human IgG1
CD3δε [3]
  Kd: 5.8 nM
  koff: 0.0032 s⁻¹
  kon: 550000 M⁻¹ s⁻¹
CD3ε-p1
  Kd: 0.99 nM
  koff: 0.00016 s⁻¹
  kon: 160000 M⁻¹ s⁻¹
CD3ε-p6
  Kd: 3.5 nM
  koff: 0.00016 s⁻¹
  kon: 46000 M⁻¹ s⁻¹
CD3ε-p2
  Kd: 3.6 nM
  koff: 0.00024 s⁻¹
  kon: 65000 M⁻¹ s⁻¹
CD3ε-p3
  Kd: 2 nM
  koff: 0.00011 s⁻¹
  kon: 56000 M⁻¹ s⁻¹
CD3ε-p7
  Kd: 1.3 nM
  koff: 0.00013 s⁻¹
  kon: 100000 M⁻¹ s⁻¹
CD3ε-p5
  Kd: 1.8 nM
  koff: 9.8e-05 s⁻¹
  kon: 54000 M⁻¹ s⁻¹

B2: L6-D2E (bispecific antibody)
heavy: QEGNEESSGGGSPLGLSSGGGSEVKLLESGGGLVQPKGSLKLSCAASGFTFNTYAMNWVRQAPGKGLEWVARIRSKYNNYATYYADSVKDRFTISRDDSQSILYLQMNNLKTEDTAMYYCVRHGNFGNSYVSWFAYWGQGTLVTVSS
light: B1 VL
chain: EVQLVESGGGFVQAGESLTLSCTSSTLTFTPYRMAWYRQAPGKQRDLVADISSGDGRTTNYADFAKGRFTISRDNIKNTVFLRMTNLKPEDTAVYYCNTFVSFVGIARSWGQGTQVTVSSESKYGPPCPPCPAPEAAGGPSVFLFPPKPKDTLMISRTPEVTCVVVDVSQEDPEVQFNWYVDGVEVHNAKTKPREEQFNSTYRVVSVLTVLHQDWLNGKEYKCKVSNKGLPSSIEKTISKAKGQPREPQVCTLPPSQEEMTKNQVSLSCAVKGFYPSDIAVEWESNGQPENNYKTTPPVLDSDGSFFLVSRLTVDKSRWQEGNVFSCSVMHEALHNRFTQKSLSLSL
CD3 on human PBMC
  Digested vs. masked (ratio of killing EC50): 32 fold
  EC50 of M-TCE-induced killing of HT29 cells in the presence of human PBMC: 0.317 nM

B3: L7-D2G (bispecific antibody)
heavy: QGGNEESSGGSGSPLGLSSGGSGSEVKLLESGGGLVQPKGSLKLSCAASGFTFNTYAMNWVRQAPGKGLEWVARIRSKYNNYATYYADSVKDRFTISRDDSQSILYLQMNNLKTEDTAMYYCVRHGNFGNSYVSWFAYWGQGTLVTVSS
light: B1 VL
chain: B2 chain
CD3 on human PBMC
  Digested vs. masked (ratio of killing EC50): 9 fold
  EC50 of M-TCE-induced killing of HT29 cells in the presence of human PBMC: 0.096 nM

B4: MMP9-digested L4-D2E (bispecific antibody, not shown: small tags and cut ends)
heavy: B1 VH
light: B1 VL
chain: B2 chain
CD3 on human PBMC
  EC50 of M-TCE-induced killing of HT29 cells in the presence of human PBMC: 0.011 nM

B5: MMP9-digested L5-D2E (bispecific antibody, not shown: small tags and cut ends)
heavy: B1 VH
light: B1 VL
chain: B2 chain
CD3 on human PBMC
  EC50 of M-TCE-induced killing of HT29 cells in the presence of human PBMC: 0.013 nM

B6: SP34: anti-CD3 antibody; VH and VL (SEQ ID NOs 1, 2) fused to human IgG1 constant regions, chimeric antibody (antibody, V domains shown)
VH: B1 VH
VL: B1 VL
modifications: human IgG1 constant regions; VH of anti-CD3 antibody SP34; VL of anti-CD3 antibody SP34
CD3δε [4]; SP34 immobilized, CD3δε 9.4-150 nM as analyte
  ka: 550000 M⁻¹ s⁻¹
CD3δε [4]; SP34 immobilized, CD3δε as analyte
  kd: 0.0032 s⁻¹
CD3δε [4]; monovalent binding of SP34 to CD3δε
  Kd: 5.8 nM
